Key:
Test in all cases: EMSA
BLM HRDC Y1237A = BLM HRDC Y1237A (Homo sapiens, UniProt P54132 1210-1294, Y1237A)
BLM HRDC T1243A = BLM HRDC T1243A (Homo sapiens, UniProt P54132 1210-1294, T1243A)
BLM HRDC domain WT [1] = target: T1, BLM HRDC domain WT (Homo sapiens, UniProt P54132 1210-1294)
BLM HRDC domain WT [2] = target: T1, BLM HRDC domain WT; remark: listed apart in the source

T1 sequence (P54132 1210-1294): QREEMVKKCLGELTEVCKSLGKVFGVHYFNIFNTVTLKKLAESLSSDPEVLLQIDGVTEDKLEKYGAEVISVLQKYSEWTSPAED
Sequence of BLM HRDC T1243A (P54132 1210-1294 T1243A): as the sequence (P54132 1210-1294) above, with T34A counted along it
Sequence of BLM HRDC Y1237A (P54132 1210-1294 Y1237A): as the sequence (P54132 1210-1294) above, with Y28A counted along it

Binder | binding result (BLM HRDC Y1237A) | binding result (BLM HRDC T1243A) | Kd (BLM HRDC domain WT [1]) [µM] | binding result (BLM HRDC domain WT [2])
GCGCATATGGAGCGTTTCCAAAGTCTTAG (ssDNA) [1SD* ssDNA 29 nt] | binds | binds | ~100 | –
1SD*/2DD dsDNA 29 bp (dsDNA) DNA 1: GCGCATATGGAGCGTTTCCAAAGTCTTAG DNA 2: CTAAGACTTTGGAAACGCTCCATATGCGC | – | – | – | no binding

— PMC2995041
